The nature of this data set: yeast display, Sf9 membrane polyspecificity reagent, FACS + sequencing; frameworks hold sequencing errors. In a few lines:
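Genes from sorted yeast were amplified by colony PCR, read by MiSeq 2 × 250 sequencing and filtered on CDR length. These cells carried a synthetic nanobody library in Saccharomyces cerevisiae BJ5465 and were sorted by FACS into low and high (top ~1%) gates on anti-HA and streptavidin fluorescence. Polyreactivity is labelled according to the gate of origin.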
As for “QVQLVESGGGLVQAGGSLRLSCAASGSIFGDYVMGWYRQAPGKERELVAAITFGGGRTYYADSVKGRFTISRDNAKNTVYLQMNSLKPEDTAVYYCAVSRKGLGSVEYWGQGTQVTVSS”, the “polyreactivity (PSR sort gate)” value was “low polyreactivity”.
For “QVQLVESGGGLVQAGGSLRLSCAASGSIFGENARGWYRQAPGKERELVAAITSGGSTYYADSVKGRFTISRDNAKNTVYLQMNSLKPVDTAVYYCAASGRVGPGYWYDSWGQGTQVTVSS”, the “polyreactivity (PSR sort gate)” value was “low polyreactivity”.
“QVQLVESGGGLVQAGGSLRLSCAASGSIFGEYAMGWYRQAPGKERELVADITTGGNTNYADSVKGRFTISRDYAKNTVYLQMNSLKPEDTAVYYCADEANYYVIFHGSWYTDDYWGQGTQVTVSS”: the “polyreactivity (PSR sort gate)” value was “low polyreactivity”.
“QVQLVESGGGLVQAGGSLRLSCAASGSIFGFNAMGWYRQAPGKERELVAAINNGGSTNYADSVKGRFTISRDNAKNTVYLQMNSLKPEDTAVYYCAAVGGWRWSNQDYRYPYYYWGQGTQVTVSS”: the “polyreactivity (PSR sort gate)” value was “high polyreactivity”.
Take “QVQLVESGGGLVQAGGSLRLSCAASGSIFGFNTMGWYRQAPGKERELVATINWSGGSTYYADSVKGRFTISRDNAKNTVYLQMNSLKPEDTAVYYCNAGPFSGRLFTTYASRGRYDYWGQGTQVTVSS”: the “polyreactivity (PSR sort gate)” value is listed as “low polyreactivity”.
Take “QVQLVESGGGLVQAGGSLRLSCAASGSIFGFYAMGWYRQAPGKERELVAAISSDGGSTYYADSVKGRFTISRDNAKNTVYLQMNSLKPEDTAVYYCAAAHGSIYDSTYYEYYYWGQGTQVTVSS”: the “polyreactivity (PSR sort gate)” value is “low polyreactivity”.
On to “QVQLVESGGGLVQAGGSLRLSCAASGSIFGFYAMGWYRQAPGKERELVASITISGGSTYYADSVKGRFTISRDNAKNTVYLQMNSLKPEDTAVYYCAARRYWDYNYWGQGTQVTVSS”, for which the “polyreactivity (PSR sort gate)” value was “low polyreactivity”.
For “QVQLVESGGGLVQAGGSLRLSCAASGSIFGGNAMGCYRQAPGKERELVAAITDGGNTNYADSVKGRFTISRDNAKNTVYLQMNSLKPEDTAVYYCAARMPGTYGGRYGYDYWGQGTQVTVSS” the value was “low polyreactivity”.
In the case of “QVQLVESGGGLVQAGGSLRLSCAASGSIFGGNAMGWYRQAPGKERELVAAISGSGGSTYYADSVKGRFTISRDNAKNTVYLQMNSLKPEDTAVYYCAAGIYRGRNYYYWGQGTQVTVSS”, the “polyreactivity (PSR sort gate)” value is given as “high polyreactivity”.
As for “QVQLVESGGGLVQAGGSLRLSCAASGSIFGGNAMGWYRQAPGKERELVATITDRGSSTYYADSVKGRFTISRDNAKNTVYLQMNSLKPEDTAVYYCATAFPDVPEPDYWGQGAQVTVSS”, the “polyreactivity (PSR sort gate)” value is reported as “low polyreactivity”.
Take “QVQLVESGGGLVQAGGSLRLSCAASGSIFGGYAMGWYRQAPGKERELVAAIDESGGSTYYADSVKGRFTISRDNAKNTVYLQMNSLKPDDTAVDYCLVFRDDSGPGDYYYWGQGTQVTVSS”: the “polyreactivity (PSR sort gate)” value is “low polyreactivity”.
In the case of “QVQLVESGGGLVQAGGSLRLSCAASGSIFGGYAMGWYRQAPGKERELVATITRGGSTYYADSVKGRFTISRDNAKNTVYFQMNSLKPEDTAVYYCAARLRSKTYYTLEFDYWGQGTQVTVSS”, the “polyreactivity (PSR sort gate)” value is “high polyreactivity”.
Consider “QVQLVESGGGLVQAGGSLRLSCAASGSIFGGYAMGWYRQAPGKERELVATSYADSVKGRFTISRDIAKNTVYLQMNSLKPEDTAVYYCAADPPLEGVHGYNYWGQGTQVTVSS”, for which the “polyreactivity (PSR sort gate)” value was “low polyreactivity”.
For the sequence “QVQLVESGGGLVQAGGSLRLSCAASGSIFGGYAMGWYRQPPGKERELVAAITWGGGSTYYADSVKGRFTISRDNAKNTVYLQMNSLKPEDTAVYYCAADRSWYDWEDDYWGQGTQVTVSS”, the “polyreactivity (PSR sort gate)” value is listed as “low polyreactivity”.
Take “QVQLVESGGGLVQAGGSLRLSCAASGSIFGGYGMGWYRQAPGKERELVAAINSGSSTYYADSVKGRFTISRDNAKNTVYLQMNSLKPEDTAVYYCAARPYPHSAYEGDYWGRGTQVTVSS”: the “polyreactivity (PSR sort gate)” value was “low polyreactivity”.
In the case of “QVQLVESGGGLVQAGGSLRLSCAASGSIFGGYTMGWYRQAPGKERELVAAISRRGGNTYYADSVKGRFTISRDYAKNTVYLHMKSMKPEDTAVYYCAVRWPSARIPVKLDYWGQGTQVTVSS”, the “polyreactivity (PSR sort gate)” value is recorded as “high polyreactivity”.
For the sequence “QVQLVESGGGLVQAGGSLRLSCAASGSIFGHYAMGWYRQAPGKERELVAAISYSGGSTYYADSVKGRFTISRDNAKNTVYLQMNILKPEDTAVYYCNADLYDAGSEMDYWGQGTQVTVSS”, the “polyreactivity (PSR sort gate)” value was “high polyreactivity”.
On to “QVQLVESGGGLVQAGGSLRLSCAASGSIFGINAMGWYRQAPGKERELVAAISYSGGSTYYADTVKGRFTISRDNAKNTVYLQMNSLKPEDTAVYYCARRGKHVAGRYYYWGQVTQVTVSS”, for which the “polyreactivity (PSR sort gate)” value is “high polyreactivity”.
As for “QVQLVESGGGLVQAGGSLRLSCAASGSIFGINTMGWYRHAPGKEREFVASIRFNDGDTYYADSVKGRFTISRDTAKNTVYLKMNSLKPEDTAVYYCNVQTYVELRLDYWGQGTQVTVSS”, the “polyreactivity (PSR sort gate)” value was “low polyreactivity”.
For “QVQLVESGGGLVQAGGSLRLSCAASGSIFGINTMRWYRQAPGKEREFVASIRFNDGDTYYADSVKGRFTISRDNAKNTVYFQMNSLKPEDTAVYYFNVQTYVELRLDYWGQGTHVTVSS” the value was “low polyreactivity”; for “QVQLVESGGGLVQAGGSLRLSCAASGSIFGIYAMGWYRQAPGKERELVAAIRRGGSTYYADSVKGRFTISRDNAKNTVYLQMNSLKPEDTAVYYCAGRKYRLWGKGVDYDFCGQGTQVTVSS”, “high polyreactivity”.
Take “QVQLVESGGGLVQAGGSLRLSCAASGSIFGIYVMGWYRPAPGKERELVAGISTRGGSTYYADSVKGRFTISRDNAKNTVYLQMNSLKPEDTAVYYCAAVPASYRYPMYYWGQGTQVTVSS”: the “polyreactivity (PSR sort gate)” value was “low polyreactivity”.
On to “QVQLVESGGGLVQAGGSLRLSCAASGSIFGKNAMGWYRQAPGKDRELVAAISWSGGRTYYADSVKGRFTISRDNAKNSVYLQMNSLKPEDTAVYYCAASWWGVARGSSRKKYDYWGQGTQVTVSS”, for which the “polyreactivity (PSR sort gate)” value is reported as “high polyreactivity”.
For the sequence “QVQLVESGGGLVQAGGSLRLSCAASGSIFGKNAMGWYRQARGKERELVAAITWSGGSTYYADSVKGRFTISRENAKNTVYLQMNSLKPEDTAVYYCNAVRVRVTSHRIRQLDFGYWGQGTQVTVSS”, the “polyreactivity (PSR sort gate)” value is reported as “low polyreactivity”.
As for “QVQLVESGGGLVQAGGSLRLSCAASGSIFGKYTMGWYRQAPGKERELVAAISRSGSSTYYADSVKGRFTISRDNAKNTVYLQMNSLKPEDTAVYYCAAKFYYGVTSKFESWGQGTQVTVSS”, the “polyreactivity (PSR sort gate)” value is “high polyreactivity”.
For “QVQLVESGGGLVQAGGSLRLSCAASGSIFGKYVMGWYRQAPGKERELVAAITFGGGSTYYADSVKGRFTISRDNAKNTVYFQMNSLKPEDTAVYYCAAKSYDERLYRRPRDYWGQGTQVTVSS” the value was “high polyreactivity”.
For the sequence “QVQLVESGGGLVQAGGSLRLSCAASGSIFGLNAMGWYRQPPGKERELVAAINSDGDTYYADSVKGRFTISRDNAKNTVYLQMNSLKPEDTAVYYCSADYYWDPFDSNFGHVPQEYESWGQGTQVTVSS”, the “polyreactivity (PSR sort gate)” value was “low polyreactivity”.
For the sequence “QVQLVESGGGLVQAGGSLRLSCAASGSIFGLYAMGWYRQAPGKEREFVASITYSGGSTYYADSVKGRFTISRDNAKNTVYLQMNSLKPEDTAVYYCAAESYWGYDYWGQGTQVTVSS”, the “polyreactivity (PSR sort gate)” value is reported as “high polyreactivity”.
For “QVQLVESGGGLVQAGGSLRLSCAASGSIFGLYAMGWYRQAPGKERELVAAINQSGGSTSYADSVKGRFTISRDNAKNTVYLQMNSLKPEDNAVYYCNRVRLNTEGFDYWGQGTQVTVSS” the value was “low polyreactivity”; for “QVQLVESGGGLVQAGGSLRLSCAASGSIFGLYAMGWYRQAPGKERELVAAITVSGGSTYYADSVKGRFTISRDNAKNTVYLQMNSLKPEDTAVYYCAARAGWPLYQYYYWGQGTQVTVSS”, “high polyreactivity”.

The values are drawn from the nanobody polyreactivity screen of Harvey et al. (2022).
